# According to patent US20090022728A1:
# Numbering of substitutions follows the chain as printed. Names and notes keep the numbering of the source.
# B1: 6G heavy chain variant 7D (N101C) (antibody, V domains shown)
# VH: QVQLVQSGAEVKKPGASVKVSCKASGYTFTTYAIHWVRQAPGQGLEWMGFTSPYSGVSNYNQKFKGRVTMTRDTSTSTVYMELSSLRSEDTAVYYCARFDCYDRGYVRDYWGQGTLVTVS
# VL: DIVMTQSPDSLAVSLGERATINCRASESVDNDRISFLNWYQQKPGQPPKLLIYAATKQGTGVPDRFSGSGSGTDFTLTISSLQAEDVAVYYCQQSKEFPWSFGGGTKVEIKR
# B2: 6G heavy chain variant 8H (N101H) (antibody, V domains shown)
# VH: B1 VH with C101H
# VL: B1 VL
# B3: 6G heavy chain variant 9E (N101R) (antibody, V domains shown)
# VH: B1 VH with C101R
# VL: B1 VL
# B4: 6G light chain variant 5B (Q94G) (antibody, V domains shown)
# VH: B1 VH with C101N
# VL: B1 VL with Q94G
# B5: 6G light chain variant 7E (Q94R) (antibody, V domains shown)
# VH: B1 VH with C101N
# VL: B1 VL with Q94R
# B6: 6G light chain variant 7F (Q94K) (antibody, V domains shown)
# VH: B1 VH with C101N
# VL: B1 VL with Q94K
# B7: 6G light chain variant 10E (S95L) (antibody, V domains shown)
# VH: B1 VH with C101N
# VL: B1 VL with S95L
# B8: 6G light chain variant 6E (E97P) (antibody, V domains shown)
# VH: B1 VH with C101N
# VL: B1 VL with E97P
# Biological target: Aβ1-40 peptide
# Sequence (peptide, as listed by the source): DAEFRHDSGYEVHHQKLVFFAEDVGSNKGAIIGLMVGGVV
# Experiment: ELISA, nonbiotinylated peptide on plate
row,Binder,A450 ELISA [A450]
1,B1,0.23
2,B2,0.21
3,B3,0.22

# Biological target: Aβ1-42 peptide
# Sequence (peptide, as listed by the source): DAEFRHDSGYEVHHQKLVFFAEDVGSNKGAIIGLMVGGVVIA
# Experiment: ELISA, nonbiotinylated peptide on plate
row,Binder,A450 ELISA [A450]
1,B1,0.31
2,B4,0.14
3,B5,0.18
4,B6,0.19
5,B7,0.12
6,B8,0.2
